Experiments:
[1] = biological target: c-Met receptor on OVCAR-8 cells (human) (UniProt P08581); test: cell-based or functional assay
human c-Met ECD (human) = human c-Met ECD (human) (UniProt P08581); test: SPR (Biacore T100), antibody captured by anti-Fc gamma, c-Met ECD in solution, 25 C

% Internalization of c-Met after 2 h on OVCAR-8 cells (=100-% antibody on cell surface) [1]: -14% | % c-Met receptor on OVCAR-8 cell surface measured after 2 h [1]: 114% | Kd (human c-Met ECD (human)): 5.5 nM
Substance: BsAB01, trivalent bispecific <ErbB1-c-Met> antibody (full length cetuximab with one c-Met 5D5 single chain Fab fragment at the C-terminus of the knob heavy chain) (bispecific antibody)
